In the supplement of paper PMC10126150:
± gives the standard deviation of the averaged measurements.

system: ATP; assay: switch fluorescence ratio, 500 uM ATP over buffer (Cy3 cluster intensity, sum of 5 cycles each) (fold (ratio)); higher = stronger signal-on switching upon ATP binding; sequences stand for … in TCGTCGGCAGCGTCAGATGTGTATAAGAGACAGTTTTTTTTTTTTTTTTTTTTTTTTT…TC; conditions: aptamer strand: ATP DNA aptamer (quencher-CACCTGGGGGAGTATTGCGGAGGAAGG + anchor), 100 nM annealed; ATP concentration: 500 uM
Outline: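 Exposure to 500 uM ATP lasted 15 min at 22 °C before imaging, and a selection-buffer image was taken beforehand, for Cy3-labelled switching-strand clusters on a modified Illumina MiSeq flow-cell annealed to 100 nM quencher-labelled ATP aptamer. Five buffer/ATP cycles were run with NaOH stripping and re-annealing between them. The fluorescence ratio per cluster is summed target-cycle over summed buffer-cycle Cy3 intensity, averaged per switch-domain sequence. Clusters outside 100-1000 RFU were excluded.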

Sequence | switch fluorescence ratio
TTGTTGTCTT | 1.02 ± 0.043
TTGTTGTGGG | 0.986 ± 0.024
TTGTTGTTTG | 1.03 ± 0.025
TTGTTTAAGT | 1.001 ± 0.0081
TTGTTTAATA | 1.02 ± 0.019
TTGTTTAATC | 1.036 ± 0.0097
TTGTTTAGCC | 0.989 ± 0.032
TTGTTTATGG | 0.983 ± 0.015
TTGTTTCAGG | 1.01 ± 0.018
TTGTTTCTTT | 1 ± 0.017
TTGTTTGAAA | 1 ± 0.064
TTGTTTGCCT | 1.04 ± 0.037
TTGTTTGGTT | 0.983 ± 0.034
TTGTTTTATT | 0.981 ± 0.038
TTGTTTTCCT | 1.02 ± 0.011
TTGTTTTCTT | 1 ± 0.045
TTGTTTTGTG | 0.978 ± 0.013
TTGTTTTTAG | 0.988 ± 0.04
TTGTTTTTCC | 1.03 ± 0.057
TTTAAAAA | 1.02 ± 0.044
TTTAAAAAGG | 0.982 ± 0.029
TTTAAAAGGG | 1 ± 0.027
TTTAAAATAG | 1.01 ± 0.019
TTTAAACTT | 1.63 ± 1.1
TTTAAACTTT | 1.013 ± 0.0075

Sequence | switch fluorescence ratio
TTTAAAGGTT | 1.02 ± 0.054
TTTAAATTAG | 0.969 ± 0.046
TTTAAATTTT | 1 ± 0.03
TTTAACGCCA | 1.082 ± 0.0028
TTTAACGGGG | 0.987 ± 0.034
TTTAACGTAC | 1.83 ± 0.15
TTTAACGTCG | 1.035 ± 0.005
TTTAAGAAGG | 1 ± 0.015
TTTAAGAATC | 0.994 ± 0.03
TTTAAGAGAT | 0.998 ± 0.028
TTTAAGATAT | 1.09 ± 0.074
TTTAAGCGCC | 0.966 ± 0.0085
TTTAAGGATT | 1.21 ± 0.33
TTTAAGGTTG | 0.986 ± 0.023
TTTAAGTAGG | 1.02 ± 0.048
TTTAAGTATT | 0.999 ± 0.02
TTTAAGTCGA | 1.02 ± 0.04
TTTAAGTGAG | 0.981 ± 0.021
TTTAATAGTG | 0.971 ± 0.014
TTTAATATGA | 0.997 ± 0.035
TTTAATCAGG | 1.04 ± 0.025
TTTAATTCT | 0.989 ± 0.022
TTTAATTGTA | 1.01 ± 0.044
TTTAATTTT | 1.04 ± 0.078
TTTAATTTTG | 1 ± 0.036

Sequence | switch fluorescence ratio
TTTACACGAT | 1.01 ± 0.019
TTTACAGAGT | 1.06 ± 0.12
TTTACAGCTT | 0.987 ± 0.027
TTTACAGGAT | 0.993 ± 0.024
TTTACCAGGG | 1.13 ± 0.085
TTTACCATAG | 1.06 ± 0.019
TTTACCCAGT | 1.04 ± 0.066
TTTACCCATC | 1.04 ± 0.033
TTTACCGGTA | 1.01 ± 0.023
TTTACCGTCT | 1.04 ± 0.018
TTTACCTATA | 1.02 ± 0.013
TTTACGAAGT | 0.966 ± 0.013
TTTACGCGTC | 1.16 ± 0.27
TTTACGGAGC | 1.37 ± 0.075
TTTACGGCGG | 0.987 ± 0.021
TTTACGGCGT | 0.994 ± 0.017
TTTACGGCTT | 1.05 ± 0.078
TTTACGGGGG | 1 ± 0.043
TTTACGTGCA | 1.04 ± 0.073
TTTACTATTT | 0.988 ± 0.035
TTTACTGCTT | 0.981 ± 0.044
TTTACTGGCT | 1.02 ± 0.0011
TTTAGAACGA | 1.01 ± 0.025
TTTAGAATTT | 1.01 ± 0.019
TTTAGACTGG | 1 ± 0.022

Sequence | switch fluorescence ratio
TTTAGAGCTT | 1.02 ± 0.024
TTTAGATAAA | 1.02 ± 0.017
TTTAGATATT | 0.98873 ± 0.00041
TTTAGATCAA | 1 ± 0.0019
TTTAGATGCT | 1.03 ± 0.099
TTTAGATTCA | 1.001 ± 0.0043
TTTAGCATGT | 1.04 ± 0.073
TTTAGCCGGG | 0.985 ± 0.014
TTTAGCCTCG | 0.992 ± 0.046
TTTAGCGGGG | 1.01 ± 0.016
TTTAGCTGCC | 1.16 ± 0.064
TTTAGCTTCA | 1.099 ± 0.0078
TTTAGCTTTA | 0.9735 ± 0.0092
TTTAGCTTTT | 1.04 ± 0.01
TTTAGGATCT | 0.954 ± 0.017
TTTAGGCAAA | 1.05 ± 0.12
TTTAGGCCCA | 1.03 ± 0.041
TTTAGGCGTT | 1.01 ± 0.057
TTTAGGCTTG | 1.02 ± 0.017
TTTAGGGGGC | 1.03 ± 0.032
TTTAGGGGTT | 1.02 ± 0.083
TTTAGGGTAT | 1.012 ± 0.0069
TTTAGGTGGC | 1.02 ± 0.009
TTTAGTAAAC | 1.08 ± 0.11
TTTAGTGCTT | 0.997 ± 0.03

Sequence | switch fluorescence ratio
TTTAGTTACG | 0.987 ± 0.013
TTTAGTTACT | 1.06 ± 0.022
TTTAGTTGAA | 0.988 ± 0.023
TTTAGTTTGT | 0.99 ± 0.036
TTTATAAAGA | 1.02 ± 0.059
TTTATAAAGT | 0.958 ± 0.032
TTTATAAGTA | 1.02 ± 0.026
TTTATAAGTT | 0.986 ± 0.023
TTTATAATCT | 1.05 ± 0.019
TTTATACGTT | 1.01 ± 0.044
TTTATACTTT | 1.06 ± 0.1
TTTATAGACT | 1.02 ± 0.0016
TTTATAGGAA | 1.02 ± 0.03
TTTATAGTGC | 1.01 ± 0.027
TTTATATAGA | 0.996 ± 0.033
TTTATATGGT | 0.988 ± 0.028
TTTATATTGG | 1.034 ± 0.00088
TTTATCAGAC | 1.07 ± 0.059
TTTATCATTG | 0.9909 ± 0.0086
TTTATGAAAT | 1.12 ± 0.19
TTTATGCCGT | 0.9505 ± 0.0022
TTTATGCTTT | 1.01 ± 0.024
TTTATGGAGT | 1.024 ± 0.0018
TTTATGGGTG | 1.01 ± 0.016
TTTATGTCTG | 1.01 ± 0.039

Sequence | switch fluorescence ratio
TTTATGTTAT | 1.1 ± 0.097
TTTATGTTGG | 0.979 ± 0.036
TTTATGTTTC | 0.98 ± 0.025
TTTATTAATG | 1.01 ± 0.026
TTTATTACTT | 1 ± 0.029
TTTATTATAT | 1.01 ± 0.031
TTTATTATGC | 1.03 ± 0.026
TTTATTATGG | 0.989 ± 0.032
TTTATTGGCT | 1 ± 0.051
TTTATTGGGC | 0.988 ± 0.053
TTTATTGTCA | 0.987 ± 0.029
TTTATTTAAT | 1.03 ± 0.035
TTTATTTACT | 1.011 ± 0.0036
TTTATTTGCG | 0.9875 ± 0.0067
TTTATTTTTT | 1 ± 0.039
TTTCAAAAGA | 1 ± 0.048
TTTCAAAGTA | 0.9657 ± 0.0071
TTTCAACGGT | 1.009 ± 0.0075
TTTCAATAGG | 1.01 ± 0.024
TTTCAATTTA | 0.996 ± 0.011
TTTCACACTC | 1.02 ± 0.03
TTTCACAGGA | 1.03 ± 0.025
TTTCACCGGG | 1.16 ± 0.17
TTTCACGAGC | 0.993 ± 0.091
TTTCACGGTA | 1.15 ± 0.11

Sequence | switch fluorescence ratio
TTTCAGAGTC | 1.01 ± 0.064
TTTCAGATGG | 1.006 ± 0.0093
TTTCAGCT | 0.977 ± 0.013
TTTCAGCTTA | 1.15 ± 0.15
TTTCAGGGGT | 1.86 ± 0.81
TTTCAGGTCC | 1.03 ± 0.065
TTTCAGGTTA | 1.06 ± 0.012
TTTCAGTCCC | 0.993 ± 0.052
TTTCAGTGCT | 0.9947 ± 0.005
TTTCATATGC | 0.995 ± 0.073
TTTCATCTTT | 1.04 ± 0.078
TTTCATGATC | 1 ± 0.026
TTTCATGGCT | 1.01 ± 0.035
TTTCATTCTC | 0.991 ± 0.01
TTTCCATGGA | 0.984 ± 0.029
TTTCCATTAA | 1 ± 0.044
TTTCCCCAAT | 1.07 ± 0.063
TTTCCCTGTT | 1.05 ± 0.076
TTTCCCTTCT | 1.05 ± 0.06
TTTCCGACGG | 1.57 ± 0.79
TTTCCGGACG | 1.02 ± 0.037
TTTCCGGCGG | 1.12 ± 0.09
TTTCCGGGGA | 1.18 ± 0.29
TTTCCTATAA | 1.13 ± 0.21
TTTCGATGGT | 0.959 ± 0.019

Sequence | switch fluorescence ratio
TTTCGCCATA | 2.39 ± 2
TTTCGCTC | 1.06 ± 0.019
TTTCGCTCGT | 0.9628 ± 0.003
TTTCGGACGC | 1.35 ± 0.33
TTTCGGAGGG | 0.982 ± 0.034
TTTCGGAGTT | 1.05 ± 0.071
TTTCGGATAA | 1.02 ± 0.056
TTTCGGATGC | 1.22 ± 0.26
TTTCGGATTC | 1.08 ± 0.059
TTTCGGGACC | 1.04 ± 0.031
TTTCGGGACG | 0.987 ± 0.035
TTTCGGGCAG | 1.02 ± 0.037
TTTCGGGGAT | 1.03 ± 0.038
TTTCGGGTAG | 1.011 ± 0.0014
TTTCGGTCTG | 1.006 ± 0.0075
TTTCGGTGCT | 1.03 ± 0.049
TTTCGGTTAA | 1.09 ± 0.11
TTTCGGTTCA | 1.037 ± 0.0044
TTTCGTAATT | 1 ± 0.024
TTTCGTATAC | 2.1 ± 0.041
TTTCGTCCTT | 1.18 ± 0.014
TTTCGTCGAA | 1.017 ± 0.01
TTTCGTGCGG | 1 ± 0.015
TTTCGTGTGT | 0.97 ± 0.0097
TTTCGTTCAT | 1.033 ± 0.0078
